Data on 3 proteins can be found in publication PMC10506485, “Human astrovirus capsid protein releases a membrane lytic peptide upon trypsin maturation” (Journal of Virology, 2023).

The series concerns the molecule itself. As to the kind of experiment: SEC; Superdex-200 or Superdex-75 size exclusion column; 50 mM Tris-HCl pH 8.0, 150 mM NaCl, 1 mM NaN3; self-association judged from the elution profile.

B1: HAstV8 VP90^14-782 (domain or fragment)
chain: NNNGRSRSKSRARSQSRGRGRSVKITVNSHNKGRRQNGRNKYQSNQRVRKIVNKQLRKQGVTGPKPAICQTATATLGTIGSNTTGATEIEACILLNPVLVKDATGSTQFGPVQALGAQYSMWKLKYLNVRLTSMVGASAVNGTVVRISLNPTSTPSSTSWSGLGARKHLDVTVGKNAVFKLKPSDLGGPRDGWWLTNTNDNASDTLGPSIEIHTLGQTMSSYQNTQFTGGLFLVELSSAWCFTGYAANPNLVNLVKSTDKSVNVTFEGSAGTPLIMNVPEHSHFARTAVEHSSLSTSLSRAGGESSSDTVWQVLNTAVSAAELVTPPPFNWLVKGGWWFVKLIAGRARTGARRFYVYLSYQDALSNKPALCTGGVPASARQSNPVRTTLQFTQMNQPSLGHGATPMTFGRSIPEPGEQFRVLLTVGPPMAPNTANSQNWVNKTIVPPENQYTVKIGIDLEHYTTMQGFTPVESVSWYTADFQPSDEPSPIPGLYARVNNTKKADVYGVQQFKSSHTNNRHQITSVFLVRVTTSFQVINYTSYFIRGAESGSNVSNLKIRDQTYHTPLQFTQGKWYLLTSTVMHDGPTSSGWVWMNQELTNNIAYRVDPGMMYLITPPPAASQLYFELHTVLPQARSEEPETYVDAPLPEEPPIEEEETDSDFESTEDENDEVDRFDLHPSSESDDDDVENDRATLLSTLLNQGISVERATRITNGAFPTRAARVRRSVYNDLLVSGLSPGAAWSHACEQARRAGDNHDLQLSGSRDHAE
notes: Capsid polyprotein precursor VP90 of human astrovirus serotype 8 (strain Yuc8), residues 14-782, N-terminal truncation; The results name the vector pET28a, the methods pET-SUMOc with an N-terminal 6xHis-SUMO tag; also called aa14–782; source: E. coli (Rosetta 2 (DE3) or BL21), purified (HisTrap, Superdex size exclusion)
Regarding B1, the binding result was “binds”.

B2: HAstV8 VP90^72-782 (domain or fragment)
chain: QGVTGPKPAICQTATATLGTIGSNTTGATEIEACILLNPVLVKDATGSTQFGPVQALGAQYSMWKLKYLNVRLTSMVGASAVNGTVVRISLNPTSTPSSTSWSGLGARKHLDVTVGKNAVFKLKPSDLGGPRDGWWLTNTNDNASDTLGPSIEIHTLGQTMSSYQNTQFTGGLFLVELSSAWCFTGYAANPNLVNLVKSTDKSVNVTFEGSAGTPLIMNVPEHSHFARTAVEHSSLSTSLSRAGGESSSDTVWQVLNTAVSAAELVTPPPFNWLVKGGWWFVKLIAGRARTGARRFYVYLSYQDALSNKPALCTGGVPASARQSNPVRTTLQFTQMNQPSLGHGATPMTFGRSIPEPGEQFRVLLTVGPPMAPNTANSQNWVNKTIVPPENQYTVKIGIDLEHYTTMQGFTPVESVSWYTADFQPSDEPSPIPGLYARVNNTKKADVYGVQQFKSSHTNNRHQITSVFLVRVTTSFQVINYTSYFIRGAESGSNVSNLKIRDQTYHTPLQFTQGKWYLLTSTVMHDGPTSSGWVWMNQELTNNIAYRVDPGMMYLITPPPAASQLYFELHTVLPQARSEEPETYVDAPLPEEPPIEEEETDSDFESTEDENDEVDRFDLHPSSESDDDDVENDRATLLSTLLNQGISVERATRITNGAFPTRAARVRRSVYNDLLVSGLSPGAAWSHACEQARRAGDNHDLQLSGSRDHAE
notes: Capsid polyprotein precursor VP90 of human astrovirus serotype 8 (strain Yuc8), residues 72-782, N-terminal truncation; The results name the vector pET28a, the methods pET-SUMOc with an N-terminal 6xHis-SUMO tag; also called aa72–782; source: E. coli (Rosetta 2 (DE3) or BL21), purified (HisTrap, Superdex size exclusion)
As for B2, the “stoichiometry N” value worked out at 2.

B3: HAstV8 VP90^28-782 (domain or fragment)
chain: QSRGRGRSVKITVNSHNKGRRQNGRNKYQSNQRVRKIVNKQLRKQGVTGPKPAICQTATATLGTIGSNTTGATEIEACILLNPVLVKDATGSTQFGPVQALGAQYSMWKLKYLNVRLTSMVGASAVNGTVVRISLNPTSTPSSTSWSGLGARKHLDVTVGKNAVFKLKPSDLGGPRDGWWLTNTNDNASDTLGPSIEIHTLGQTMSSYQNTQFTGGLFLVELSSAWCFTGYAANPNLVNLVKSTDKSVNVTFEGSAGTPLIMNVPEHSHFARTAVEHSSLSTSLSRAGGESSSDTVWQVLNTAVSAAELVTPPPFNWLVKGGWWFVKLIAGRARTGARRFYVYLSYQDALSNKPALCTGGVPASARQSNPVRTTLQFTQMNQPSLGHGATPMTFGRSIPEPGEQFRVLLTVGPPMAPNTANSQNWVNKTIVPPENQYTVKIGIDLEHYTTMQGFTPVESVSWYTADFQPSDEPSPIPGLYARVNNTKKADVYGVQQFKSSHTNNRHQITSVFLVRVTTSFQVINYTSYFIRGAESGSNVSNLKIRDQTYHTPLQFTQGKWYLLTSTVMHDGPTSSGWVWMNQELTNNIAYRVDPGMMYLITPPPAASQLYFELHTVLPQARSEEPETYVDAPLPEEPPIEEEETDSDFESTEDENDEVDRFDLHPSSESDDDDVENDRATLLSTLLNQGISVERATRITNGAFPTRAARVRRSVYNDLLVSGLSPGAAWSHACEQARRAGDNHDLQLSGSRDHAE
notes: Capsid polyprotein precursor VP90 of human astrovirus serotype 8 (strain Yuc8), residues 28-782, N-terminal truncation; The results name the vector pET28a, the methods pET-SUMOc with an N-terminal 6xHis-SUMO tag; Forms rod-shaped assemblies of about 20 nm diameter and variable length; also called aa28–782; source: E. coli (Rosetta 2 (DE3) or BL21), purified (HisTrap, Superdex-200 size exclusion)
Take B3: the binding result is recorded as “binds”.
